The values below come from patent US20250179187A1, “ANTI PD-L2 ANTIBODY” (REJUVERON SENESCENCE THERAPEUTICS AG, priority 2022, published 2025).

T1: human PD-L2 antigen (Homo sapiens, UniProt Q9BQ51)
T1 sequence (Q9BQ51 20-273): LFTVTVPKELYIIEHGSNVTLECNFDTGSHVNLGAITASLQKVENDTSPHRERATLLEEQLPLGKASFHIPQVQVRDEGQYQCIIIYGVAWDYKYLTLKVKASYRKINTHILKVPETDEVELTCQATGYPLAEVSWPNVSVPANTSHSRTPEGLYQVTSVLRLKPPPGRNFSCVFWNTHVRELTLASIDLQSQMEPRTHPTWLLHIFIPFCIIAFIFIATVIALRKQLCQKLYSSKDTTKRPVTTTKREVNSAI

B1: VH1/VK1: humanized anti-PD-L2 variant; SEQ ID NO: 2/SEQ ID NO: 10 (antibody, V domains shown)
VH: QVQLVQSGAELKKPGSSVKVSCKASGYAFSNYFIEWVKQPPGKGLEWIGLNIPGSGGSNYAEKFKGRATITADKSTSTAYMELSSLTSEDSAVYFCARRRLPPDWYFDVWGQGTTVTVSS
VL: DVVMTQSPLSLPVTLGQPASISCRSSQSLVHSDGNTYLHWYQQKPGQPPKLLIYKVSNRFSGVPDRFSGSGSGTDFTLKISRVEAEDVGVYFCSQSTHVPWTFGGGTKVEIK
B2: VH3/VK1: humanized anti-PD-L2 variant; SEQ ID NO: 4/SEQ ID NO: 10 (antibody, V domains shown)
VH: QVQLVQSGAEVKKPGSSVKVSCKASGYAFSNYFIEWVKQPPGKGLEWIGLNIPGSGGSNYAEKFKGRVTITADKSTSTAYMELSSLRSEDSAVYFCARRRLPPDWYFDVWGQGTTVTVSS
VL: DVVMTQSPLSLPVTLGQPASISCRSSQSLVHSDGNTYLHWYQQKPGQPPKLLIYKVSNRFSGVPDRFSGSGSGTDFTLKISRVEAEDVGVYFCSQSTHVPWTFGGGTKVEIK
B3: VH4/VK3: humanized anti-PD-L2 variant; SEQ ID NO: 5/SEQ ID NO: 12 (antibody, V domains shown)
VH: QVQLVQSGAEVKKPGSSVKVSCKASGYAFSNYFIEWVKQPPGKGLEWIGLNIPGSGGSNYAEKFKGRVTITADKSTSTAYMELSSLRSEDTAVYYCARRRLPPDWYFDVWGQGTTVTVSS
VL: DVVMTQSPLSLPVTLGQPASISCRSSQSLVHSGGNTYLHWYQQKPGQPPKLLIYKVSNRFSGVPDRFSGSGSGTDFTLKISRVEAEDVGVYFCSQSTHVPWTFGGGTKVEIK
B4: VH3/VK2: humanized anti-PD-L2 variant; SEQ ID NO: 4/SEQ ID NO: 11 (antibody, V domains shown)
VH: QVQLVQSGAEVKKPGSSVKVSCKASGYAFSNYFIEWVKQPPGKGLEWIGLNIPGSGGSNYAEKFKGRVTITADKSTSTAYMELSSLRSEDSAVYFCARRRLPPDWYFDVWGQGTTVTVSS
VL: DVVMTQSPLSLPVTLGQPASISCRSSQSLVHSDGNTYLHWYQQKPGQPPKLLIYKVSNRFSGVPDRFSGSGSGTDFTLKISRVEAEDVGVYYCSQSTHVPWTFGGGTKVEIK
B5: VH3/VK3: humanized anti-PD-L2 variant; SEQ ID NO: 4/SEQ ID NO: 12 (antibody, V domains shown)
VH: QVQLVQSGAEVKKPGSSVKVSCKASGYAFSNYFIEWVKQPPGKGLEWIGLNIPGSGGSNYAEKFKGRVTITADKSTSTAYMELSSLRSEDSAVYFCARRRLPPDWYFDVWGQGTTVTVSS
VL: DVVMTQSPLSLPVTLGQPASISCRSSQSLVHSGGNTYLHWYQQKPGQPPKLLIYKVSNRFSGVPDRFSGSGSGTDFTLKISRVEAEDVGVYFCSQSTHVPWTFGGGTKVEIK
B6: VH7/VK1: humanized anti-PD-L2 variant; SEQ ID NO: 7/SEQ ID NO: 10 (antibody, V domains shown)
VH: QVQLVQSGAELKKPGSSVKVSCKASGYAFSNYFIEWVKQPPGKGLEWIGLNIPGSGGSNYAEKFKGRATITADKSTSTAYMELSSLRSEDTAVYYCARRRLPPDWYFDVWGQGTTVTVSS
VL: DVVMTQSPLSLPVTLGQPASISCRSSQSLVHSDGNTYLHWYQQKPGQPPKLLIYKVSNRFSGVPDRFSGSGSGTDFTLKISRVEAEDVGVYFCSQSTHVPWTFGGGTKVEIK
B7: VH4/VK1: humanized anti-PD-L2 variant; SEQ ID NO: 5/SEQ ID NO: 10 (antibody, V domains shown)
VH: QVQLVQSGAEVKKPGSSVKVSCKASGYAFSNYFIEWVKQPPGKGLEWIGLNIPGSGGSNYAEKFKGRVTITADKSTSTAYMELSSLRSEDTAVYYCARRRLPPDWYFDVWGQGTTVTVSS
VL: DVVMTQSPLSLPVTLGQPASISCRSSQSLVHSDGNTYLHWYQQKPGQPPKLLIYKVSNRFSGVPDRFSGSGSGTDFTLKISRVEAEDVGVYFCSQSTHVPWTFGGGTKVEIK
B8: VH1/VK3: humanized anti-PD-L2 variant; SEQ ID NO: 2/SEQ ID NO: 12 (antibody, V domains shown)
VH: QVQLVQSGAELKKPGSSVKVSCKASGYAFSNYFIEWVKQPPGKGLEWIGLNIPGSGGSNYAEKFKGRATITADKSTSTAYMELSSLTSEDSAVYFCARRRLPPDWYFDVWGQGTTVTVSS
VL: DVVMTQSPLSLPVTLGQPASISCRSSQSLVHSGGNTYLHWYQQKPGQPPKLLIYKVSNRFSGVPDRFSGSGSGTDFTLKISRVEAEDVGVYFCSQSTHVPWTFGGGTKVEIK
B9: VH2/VK1: humanized anti-PD-L2 variant; SEQ ID NO: 3/SEQ ID NO: 10 (antibody, V domains shown)
VH: QVQLVQSGAEVKKPGSSVKVSCKASGYAFSNYFIEWVKQPPGKGLEWIGLNIPGSGGSNYAEKFKGRATITADKSTSTAYMELSSLRSEDSAVYFCARRRLPPDWYFDVWGQGTTVTVSS
VL: DVVMTQSPLSLPVTLGQPASISCRSSQSLVHSDGNTYLHWYQQKPGQPPKLLIYKVSNRFSGVPDRFSGSGSGTDFTLKISRVEAEDVGVYFCSQSTHVPWTFGGGTKVEIK
B10: VH8/VK1: humanized anti-PD-L2 variant; SEQ ID NO: 8/SEQ ID NO: 10 (antibody, V domains shown)
VH: QVQLVQSGAEVKKPGSSVKVSCKASGYAFSNYFIEWVKQPPGKGLEWIGLNIPGSGGSNYAEKFKGRATITADKSTSTAYMELSSLRSEDTAVYYCARRRLPPDWYFDVWGQGTTVTVSS
VL: DVVMTQSPLSLPVTLGQPASISCRSSQSLVHSDGNTYLHWYQQKPGQPPKLLIYKVSNRFSGVPDRFSGSGSGTDFTLKISRVEAEDVGVYFCSQSTHVPWTFGGGTKVEIK
B11: VH0/VK1: anti-PD-L2 variant on hIgG1; SEQ ID NO: 1/SEQ ID NO: 10 (antibody, V domains shown)
VH: QVQLQQSGAELVRPGTSVKVSCKASGYAFSNYFIEWVKQRPGQGLEWIGLNIPGSGGSNYAEKFKGKATLTADKSSSTAYMQLSSLTSEDSAVYFCARRRLPPDWYFDVWGTGTTVTVSS
VL: DVVMTQSPLSLPVTLGQPASISCRSSQSLVHSDGNTYLHWYQQKPGQPPKLLIYKVSNRFSGVPDRFSGSGSGTDFTLKISRVEAEDVGVYFCSQSTHVPWTFGGGTKVEIK
modifications: human IgG1 constant regions
B12: VH7/VK3: humanized anti-PD-L2 variant; SEQ ID NO: 7/SEQ ID NO: 12 (antibody, V domains shown)
VH: QVQLVQSGAELKKPGSSVKVSCKASGYAFSNYFIEWVKQPPGKGLEWIGLNIPGSGGSNYAEKFKGRATITADKSTSTAYMELSSLRSEDTAVYYCARRRLPPDWYFDVWGQGTTVTVSS
VL: DVVMTQSPLSLPVTLGQPASISCRSSQSLVHSGGNTYLHWYQQKPGQPPKLLIYKVSNRFSGVPDRFSGSGSGTDFTLKISRVEAEDVGVYFCSQSTHVPWTFGGGTKVEIK
B13: VH2/VK3: humanized anti-PD-L2 variant; SEQ ID NO: 3/SEQ ID NO: 12 (antibody, V domains shown)
VH: QVQLVQSGAEVKKPGSSVKVSCKASGYAFSNYFIEWVKQPPGKGLEWIGLNIPGSGGSNYAEKFKGRATITADKSTSTAYMELSSLRSEDSAVYFCARRRLPPDWYFDVWGQGTTVTVSS
VL: DVVMTQSPLSLPVTLGQPASISCRSSQSLVHSGGNTYLHWYQQKPGQPPKLLIYKVSNRFSGVPDRFSGSGSGTDFTLKISRVEAEDVGVYFCSQSTHVPWTFGGGTKVEIK
B14: VH1/VK2: humanized anti-PD-L2 variant; SEQ ID NO: 2/SEQ ID NO: 11 (antibody, V domains shown)
VH: QVQLVQSGAELKKPGSSVKVSCKASGYAFSNYFIEWVKQPPGKGLEWIGLNIPGSGGSNYAEKFKGRATITADKSTSTAYMELSSLTSEDSAVYFCARRRLPPDWYFDVWGQGTTVTVSS
VL: DVVMTQSPLSLPVTLGQPASISCRSSQSLVHSDGNTYLHWYQQKPGQPPKLLIYKVSNRFSGVPDRFSGSGSGTDFTLKISRVEAEDVGVYYCSQSTHVPWTFGGGTKVEIK
B15: VH8/VK3: humanized anti-PD-L2 variant; SEQ ID NO: 8/SEQ ID NO: 12 (antibody, V domains shown)
VH: QVQLVQSGAEVKKPGSSVKVSCKASGYAFSNYFIEWVKQPPGKGLEWIGLNIPGSGGSNYAEKFKGRATITADKSTSTAYMELSSLRSEDTAVYYCARRRLPPDWYFDVWGQGTTVTVSS
VL: DVVMTQSPLSLPVTLGQPASISCRSSQSLVHSGGNTYLHWYQQKPGQPPKLLIYKVSNRFSGVPDRFSGSGSGTDFTLKISRVEAEDVGVYFCSQSTHVPWTFGGGTKVEIK
B16: VH2/VK2: humanized anti-PD-L2 variant; SEQ ID NO: 3/SEQ ID NO: 11 (antibody, V domains shown)
VH: QVQLVQSGAEVKKPGSSVKVSCKASGYAFSNYFIEWVKQPPGKGLEWIGLNIPGSGGSNYAEKFKGRATITADKSTSTAYMELSSLRSEDSAVYFCARRRLPPDWYFDVWGQGTTVTVSS
VL: DVVMTQSPLSLPVTLGQPASISCRSSQSLVHSDGNTYLHWYQQKPGQPPKLLIYKVSNRFSGVPDRFSGSGSGTDFTLKISRVEAEDVGVYYCSQSTHVPWTFGGGTKVEIK

The assay addresses T1, human PD-L2 antigen. Nature of the assay: Single cycle kinetics on Biacore 8K, binding to human PD-L2 antigen. The conditions noted are these: Table 2, cell culture supernatants. The text has this:
Table 2: Single cycle kinetic parameters of chimeric (VH0/VK0) and humanized variants (tested as cell culture supernatants) binding to human PD-L2 antigen as determined using the Biacore 8K. As used herein, the term “KD” is intended to refer to the dissociation equilibrium constant of a particular antibody-antigen interaction, ka is the binding rate constant and kd is the dissociation rate constant. The binding affinity of antibodies of the disclosed invention may be measured or determined by standard antibody-antigen assays. The relative KD was calculated by dividing the KD of the humanized variant by that of the VH0/VK0 assayed in the same experiment.
As for B1, the “kd” value worked out at 0.00011 s⁻¹.

With B2, the “kd” value came to 0.000128 s⁻¹.

For the molecule B3, the “kd” value came out at 0.000466 s⁻¹.

Take B4: the “kd” value is 0.000132 s⁻¹.

As to B5, the “kd” value is 0.000497 s⁻¹.

Turning to B6, the “kd” value is 0.000113 s⁻¹.

As to B7, the “kd” value came out at 0.000125 s⁻¹.

For the molecule B8, the “kd” value was found to be 0.000365 s⁻¹.

For B9, the “kd” value is 0.000119 s⁻¹.

As for B10, the “kd” value is 0.00012 s⁻¹.

On to B11, for which the “kd” value was found to be 9.88e-05 s⁻¹.

Turning to B12, the “kd” value turned out to be 0.000344 s⁻¹.

As to B13, the “kd” value was 0.000414 s⁻¹.

B14: the “kd” value was 0.000116 s⁻¹.

B15: the “kd” value is 0.000388 s⁻¹.

For B16, the “kd” value was found to be 0.000122 s⁻¹.
